This note sets out measurements from patent publication US20100120118A1.

The data set deals with purified MrpC.

Regarding “N-terminal histidine-tagged MazF-mx (H-MazF)”, the “gel-shift assay of MrpC on the mazF-mx promoter (PmazF) after preincubation with H-MazF” value is on record as “Binding of MrpC to the promoter region was found to be inhibited when MrpC was preincubated with MazF-mx”.
